Measurements as given in article PMC3313673.

Target: extracellular domain of quail MuSK (amino acid residues 1 to 463), His-tagged (quail)
Experiment: ELISA

B1: biotinylated recombinant biglycan (non-glycanated form) (ligand)
chain: DEEASGADTSGVLDPDSVTPTYSAMCPFGCHCHLRVVQCSDLGLKSVPKEISPDTTLLDLQNNDISELRKDDFKGLQHLYALVLVNNKISKIHEKAFSPLRKLQKLYISKNHLVEIPPNLPSSLVELRIHDNRIRKVPKGVFSGLRNMNCIEMGGNPLENSGFEPGAFDGLKLNYLRISEAKLTGIPKDLPETLNELHLDHNKIQAIELEDLLRYSKLYRLGLGHNQIRMIENGSLSFLPTLRELHLDNNKLARVPSGLPDLKLLQVVYLHSNNITKVGVNDFCPMGFGVKRAYYNGISLFNNPVPYWEVQPATFRCVTDRLAIQFGNYKK
modifications: biotin (site not stated)
signal of the plate assay (read at 415 nm): 0.45
